These results are taken from patent US20230288411A1, “POLYPEPTIDE, MULTIMER, SOLID PHASE, MEASUREMENT METHOD FOR TEST SUBSTANCE, AND REAGENT KIT” (SYSMEX CORPORATION, priority 2020, published 2023).

The target of experiment [1] is TSH (thyroid stimulating hormone) in HISCL (trademark) TSH Calibrators C0 to C5 (Sysmex Corporation) (UniProt P01215). The experiment can be described thus: chemiluminescent sandwich ELISA on D-tamavidin 2-immobilized plate; TSH 0 µIU/mL (blank).
For experiment [2] the target is unchanged. Description: chemiluminescent sandwich ELISA on D-streptavidin-immobilized plate; TSH 50 µIU/mL. In general terms: ELISA stands for enzyme-linked immunosorbent assay.
Experiment [3] shares this target. Description: chemiluminescent sandwich ELISA on D-streptavidin-immobilized plate; TSH 200 µIU/mL.
For experiment [4] the target is unchanged. Description: chemiluminescent sandwich ELISA on D-streptavidin-immobilized plate; TSH 120 µIU/mL.
For experiment [5] the target is unchanged. The experiment can be described thus: chemiluminescent sandwich ELISA on D-tamavidin 2-immobilized plate; TSH 10 µIU/mL.
Experiment [6] has the same target. The experiment can be described thus: chemiluminescent sandwich ELISA on D-tamavidin 2-immobilized plate; TSH 50 µIU/mL, five samples.
The target is the same in experiment [7]. Description: chemiluminescent sandwich ELISA on D-streptavidin-immobilized plate; TSH 2 µIU/mL.
Experiment [8] shares this target. The experiment can be described thus: chemiluminescent sandwich ELISA on D-streptavidin-immobilized plate; TSH 0 µIU/mL (blank).
The target is the same in experiment [9]. Description: chemiluminescent sandwich ELISA on D-tamavidin 2-immobilized plate; TSH 200 µIU/mL.
Experiment [10] has the same target. The experiment can be described thus: chemiluminescent sandwich ELISA on D-streptavidin-immobilized plate; TSH 50 µIU/mL, five samples.
Experiment [11] shares this target. The experiment can be described thus: chemiluminescent sandwich ELISA on D-streptavidin-immobilized plate; TSH 10 µIU/mL.
For experiment [12] the target is unchanged. Description: chemiluminescent sandwich ELISA on D-tamavidin 2-immobilized plate; TSH 2 µIU/mL.
Experiment [13] has the same target. Description: chemiluminescent sandwich ELISA on D-tamavidin 2-immobilized plate; TSH 120 µIU/mL.
The target is the same in experiment [14]. The experiment can be described thus: chemiluminescent sandwich ELISA on D-tamavidin 2-immobilized plate; TSH 50 µIU/mL.

TSH (thyroid stimulating hormone) in HISCL (trademark) TSH Calibrators C0 to C5 (Sysmex Corporation), sequence (P01215 25-116, chain 1 of 2): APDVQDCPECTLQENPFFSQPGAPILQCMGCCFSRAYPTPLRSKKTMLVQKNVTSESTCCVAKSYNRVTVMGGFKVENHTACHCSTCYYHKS
TSH (thyroid stimulating hormone) in HISCL (trademark) TSH Calibrators C0 to C5 (Sysmex Corporation), sequence (P01222 21-132, chain 2 of 2, further chain): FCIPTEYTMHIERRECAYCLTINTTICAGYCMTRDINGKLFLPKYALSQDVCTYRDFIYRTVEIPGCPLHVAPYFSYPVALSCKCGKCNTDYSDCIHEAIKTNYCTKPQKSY

On to “L-biotin-labeled TSH antibody (thyroid stimulating hormone antibody T2-194, KITAYAMA LABES CO., LTD., labeled with L-biotin-AC5-OSu)”, for which the Count value is 363 count in [1]; 442000 count in [2]; 1.26e+06 count in experiment [3]; 967000 count in experiment [4]; 150000 count in [5]; 17300 count in experiment [7]. Also, the Count value was determined as 1010 count in experiment [8]; 1.58e+06 count in experiment [9]; 80400 count in experiment [11]; 35300 count in experiment [12]; 1.32e+06 count in [13]; 700000 count in experiment [14]. Moreover, the Count value (average of five samples) came out at 668000 count in [6] and 410000 count in [10].
